According to patent publication US20240117012A1 (KAO, published 2024):
Where two headings read alike, the source gives them in different places.

B1: His-tagged CoVHH-N1 (VHH)
VHH: EVQLVESGGAVVQPGGSLRLSCEASGFPFTKFWMYWVRRAPGKGLEWVAFIDTTGTITNYASSVKGRFTISRDDARNMVYLQMNDLRPEDTAIYYCATGPPGSTWVVDFHSWGQGTQVTVSS
notes: also called CoVHH-N1 (His-tagged)
B2: His-tagged CoVHH-N2 (VHH)
VHH: EVQLVESGGGSVQAGGSLTLSCAASGFTFDDHAVGWFRQAPGKGLEWVSAISGDGYTTVYADSVKGRFTISRDNAKKTVYLQMNSLKAEDTAVYYCNAFRTDIVREYWGQGTQVTVSS
notes: also called CoVHH-N2 (His-tagged)

Tests used:
[1] = molecular target: T1, SARS-CoV-2 Nucleocapsid-Fc fusion protein (SARS-CoV-2, UniProt P0DTC9 1-419)
[2] = molecular target: T1, SARS-CoV-2 Nucleocapsid-Fc fusion …; experiment: CoVHH-N1
[3] = molecular target: T1, SARS-CoV-2 Nucleocapsid-Fc fusion …; experiment: CoVHH-N2

| Binder | Kd [1] [nM] | koff [2] [s⁻¹] | kon [2] [M⁻¹ s⁻¹] | Kd [3] [nM] | koff [3] [s⁻¹] | kon [3] [M⁻¹ s⁻¹] |
| --- | --- | --- | --- | --- | --- | --- |
| B1 | 0.564 | 0.0017 | 3.02e+06 | – | – | – |
| B2 | – | – | – | 2.09 | 0.0009 | 430000 |
